Laboratory results from patent US20100233157A1 (published 2010).

Assays:
JPT31 peptide = biological target: T1, JPT31 peptide (human); experiment: peptide microarray (JPT), 50 ug/ml antibody
T1 construct: Peptide of the human Fas peptide scan, immobilized on a glass microarray (JPT peptide technologies)
T1 peptide: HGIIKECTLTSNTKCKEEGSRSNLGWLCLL
Description: (§1) Epitope mapping of F45D9-γ1 and F45D9-γ4 mAb was done using peptide microarrays from JPT peptide technologies. The microarray is composed of several different peptide scans of TNR6_Human protein (FAS molecule, accession number P25445; Oehm A. et al. J. Biol. Chem. 267:10709, 1992), immobilized on a glass surface. The microarrays were pre-treated 2 h at room temperature with blocking buffer (Pierce, Superblock), followed by washings with TBS buffer, pH 8.0 and water (3 times each). Pre-treated arrays were scanned using Axon-4000B-Microarray Scanner for background control. […] Control incubation with secondary antibody only was performed in parallel. All microarrays were scanned using Axon-4000B-Microarray Scanner with appropriate wavelength settings. SPOT recognition software package ArrayPro was used for data analysis. Mean of signal intensities from 3 identical subarrays on each microarray image were used for data evaluation.

JPT32 peptide = biological target: T2, JPT32 peptide (human); experiment: peptide microarray (JPT), 50 ug/ml antibody
T2 construct: Peptide of the human Fas peptide scan, immobilized on a glass microarray (JPT peptide technologies)
T2 peptide: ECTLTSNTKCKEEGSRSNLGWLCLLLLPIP
Description: as §1

JPT33 peptide = biological target: T3, JPT33 peptide (human); experiment: peptide microarray (JPT), 50 ug/ml antibody
T3 construct: Peptide of the human Fas peptide scan, immobilized on a glass microarray (JPT peptide technologies)
T3 peptide: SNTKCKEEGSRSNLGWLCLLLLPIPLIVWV
Description: as §1

[1] = biological target: T4, Chimpanzee Fas on the cell surface (chimpanzee, UniProt K6ZIR5 26-335); experiment: flow cytometry histograms (FL1-H) on chimpanzee cells (cell type not printed on the sheet), FITC anti-human IgG secondary
T4 construct: also called Fas on chimpanzee B cell line
T4 sequence: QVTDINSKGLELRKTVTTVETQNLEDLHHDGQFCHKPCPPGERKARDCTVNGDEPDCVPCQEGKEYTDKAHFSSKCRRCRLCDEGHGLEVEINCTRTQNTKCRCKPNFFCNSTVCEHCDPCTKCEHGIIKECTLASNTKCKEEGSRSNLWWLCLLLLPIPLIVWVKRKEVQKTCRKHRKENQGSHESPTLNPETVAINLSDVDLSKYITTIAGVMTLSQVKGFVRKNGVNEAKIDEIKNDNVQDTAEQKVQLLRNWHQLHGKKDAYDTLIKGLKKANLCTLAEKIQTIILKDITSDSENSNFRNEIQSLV
Excerpt: Reactivity of F45D9-γ1 or F45D9-γ4 mAb with Fas molecules of various species was initially screened using primary blood cells or lymphocytes cell lines. The binding of F45D9-γ1 or F45D9-γ4 mAb was explored by immunofluoresce staining and flow cytometry analysis, in human PBMC, purified human resting T cells, activated human T cells, peripheral blood lymphocytes (PBL) derived from BALE/c mice, rat, dog and pig, and in B cell lines or PBL derived from common marmoset, cynomolgus macaque, olive baboon, rhesus macaque and chimpanzee. Resting and activated human T cells were prepared as described in Example 7. B cells lines from monkeys were obtained from Biomedical Primate Research Center (Rijswijk, The Netherlands), and were cultured in RPMI 1640 medium supplemented with 2 mM glutamax, 100 UI/mL penicillin, 100 μg/mL streptomycin and 10% fetal bovine serum, at 37° C. and 5% CO₂. After washing in PBS cells (0.2−0.4×10⁶ cells/well) were incubated in staining buffer (PBS/1% FBS) containing F45D9-γ1 or human IgG control antibodies (10-20 ug/ml) in a 96-well U-bottom plate for 30 min on ice, in a 100 ul/well volume. Cells were then washed once with staining buffer, and further incubated for 30 min on ice with 1:30 dilution of FITC-conjugated rabbit F(ab′)₂ anti-human kappa (DakoCytomation Cat. F0434) or FITC-conjugated rabbit F(ab′)₂ anti-human IgG (DakoCytomation Cat. F0056). […]

Measured: binding result

B1: F45D9-γ1 mAb (recombinant human mAb T17/B2-1G4, gamma-1 isotype) (antibody, V domains shown)
VH: QVQLQQWGAGLLKPSETLSLICAVYGGSFSTYYWTWIRQPPGKGLEWIGEINHRGTTNYSPSLKSRVTISVDTSKNHISLNLTSVTAADTALYYCARGLLWIGEGDYGLDVWGQGTTVTVSS
VL: DIQMTQSPSSLSASVGDRVTITCRASQGIRRWLAWYQQKPEKAPKSLIYAASSLQSGVPSRFSGSGSGTDFTLTISSLQPEDFATYYCQQYNSYPYTFGQGTKLEIKR
notes: Whole human IgG1 (γ1fa allotype) with human kappa light chain, made in CHO DG44 cells; also called IgG1; T17/L18/B2-1G4
binds: JPT31 peptide | JPT32 peptide | JPT33 peptide | [1]
